Paper PMC9628495
One block for each substance: values may come before it.

Key:
[1] = target: PFc41 (L309G/M428L) Fc variant displayed on the E. coli inner membrane (human); test: flow cytometry on cells; single clones rescued from the fourth round of screening, Fc displayed on E. coli spheroplasts, fluorescent hFcRn probe; screening at pH 5.8, pH of the clone analysis not stated; mean fluorescence intensity
[2] = target: EFc41 (P228L/L234F/E269D/Q342L/E388D/T394A/M428L) Fc variant displayed on the E. coli inner membrane (human); test: as above
[3] = target: PFc29 (Q311R/M428L) Fc variant displayed on the E. coli inner membrane (human); test: as above
[4] = target: trastuzumab-PFc41 (L309G/M428L) (human); test: SPR; Biacore T200; HER2 amine-coupled on a CM5 chip (~3000 RU), trastuzumab-Fc variants captured on it (~300 RU), hFcRn injected at 1000, 500, 250, 125 and 62.5 nM in PBS (printed '10x') with 0.05% Tween 20, pH 6.0, 50 μl/min; 1:1 binding model; 'Steady state' for trastuzumab with wild-type Fc
[5] = target: trastuzumab-YTE (M252Y/S254T/T256E) (human); test: as above
[6] = target: trastuzumab-PFc29 (Q311R/M428L) (human); test: as above
[7] = target: trastuzumab-LS (M428L/N434S) (human); test: as above
[8] = target: trastuzumab (wild-type Fc, prepared in-house) (human); test: as above
[9] = target: human complement C1q (human) (UniProt P02745)
Sequence of UniProt P02745 (P02745 23-245, chain 1 of 3): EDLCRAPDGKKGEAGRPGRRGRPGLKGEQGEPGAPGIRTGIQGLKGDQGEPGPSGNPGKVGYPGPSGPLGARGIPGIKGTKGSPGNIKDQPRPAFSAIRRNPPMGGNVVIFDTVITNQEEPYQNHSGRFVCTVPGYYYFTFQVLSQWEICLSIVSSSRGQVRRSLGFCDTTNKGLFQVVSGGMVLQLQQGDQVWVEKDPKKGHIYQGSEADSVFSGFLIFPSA
Sequence of UniProt P02745 (P02746 28-253, chain 2 of 3, further chain): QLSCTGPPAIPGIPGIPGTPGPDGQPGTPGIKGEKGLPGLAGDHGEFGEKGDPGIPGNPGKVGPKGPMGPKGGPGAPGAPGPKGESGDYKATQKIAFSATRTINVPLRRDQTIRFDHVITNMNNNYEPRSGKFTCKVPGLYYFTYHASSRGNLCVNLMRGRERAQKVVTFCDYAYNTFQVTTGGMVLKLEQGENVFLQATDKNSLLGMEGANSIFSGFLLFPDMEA
Sequence of UniProt P02745 (P02747 29-245, chain 3 of 3, further chain): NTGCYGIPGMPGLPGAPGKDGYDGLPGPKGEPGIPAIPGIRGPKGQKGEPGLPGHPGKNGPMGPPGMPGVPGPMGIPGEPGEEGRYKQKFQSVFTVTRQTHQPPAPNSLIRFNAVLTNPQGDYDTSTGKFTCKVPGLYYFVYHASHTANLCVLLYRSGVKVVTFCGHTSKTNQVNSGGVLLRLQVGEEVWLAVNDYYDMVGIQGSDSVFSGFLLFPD

[10] = target: human FcγRIIIa-158V-GST (dimeric GST-fused form) (human)
Sequence of human FcγRIIIa-158V-GST (dimeric GST-fused form) (human) (P08637 17-208): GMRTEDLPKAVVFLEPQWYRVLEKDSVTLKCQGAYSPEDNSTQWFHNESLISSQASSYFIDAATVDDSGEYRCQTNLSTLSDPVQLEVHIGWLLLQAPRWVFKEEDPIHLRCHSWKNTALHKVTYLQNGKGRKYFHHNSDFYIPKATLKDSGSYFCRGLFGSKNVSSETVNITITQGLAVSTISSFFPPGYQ

[11] = target: hFcRn-SA-Alexa 488, P55899;P61769; test: flow cytometry (FACS) of E. coli spheroplasts displaying Fc; conditions: 40 nM hFcRn-SA-Alexa 488, read off a plot
[12] = pH 5.8 in the image key (pH 6.0 in the legend), parent: est. 300

Kd [4]: 198 nM | Kd [5]: 147 nM | Kd [6]: 149 nM | Kd [7]: 81.6 nM | Kd [8]: 647 nM
Substance: monomeric human FcRn (human FcRn α chain-His complexed with human β2-microglobulin) (from UniProt P55899 24-297; P61769 21-119)

EC50 of CDC (lysis of Raji cells with normal human complement) [9]: 0.33 µg/mL
Substance: rituximab (wild-type Fc, prepared in-house) (antibody)

EC50 of ADCC (ADCC Reporter Bioassay; SKBR-3 target cells, FcγRIIIa-158V-expressing engineered Jurkat effector cells; luminescence) [10]: 0.12 µg/mL
Substance: trastuzumab (wild-type Fc, prepared in-house) (antibody)

response [11, 12]: 280 MFI | response ([11]; pH 7.4, parent: est. 30): 40 MFI
Substance: wild-type Fc displayed on the E. coli inner membrane Q311R

The remaining lines, values behind:

Substance: Alexa 488-labelled hFcRn probe (FcRn-GST or FcRn-streptavidin) (from UniProt P55899 24-297; P61769 21-119) (complex)
MFI [1]: 1910 | MFI [2]: 862 | MFI [3]: 1180

Substance: trastuzumab-LS (M428L/N434S) (antibody)
EC50 of ADCC (ADCC Reporter Bioassay; SKBR-3 target cells, FcγRIIIa-158V-expressing engineered Jurkat effector cells; luminescence) [10]: 0.061 µg/mL

Substance: trastuzumab-PFc29 (Q311R/M428L) (antibody)
EC50 of ADCC (ADCC Reporter Bioassay; SKBR-3 target cells, FcγRIIIa-158V-expressing engineered Jurkat effector cells; luminescence) [10]: 0.051 µg/mL

Substance: wild-type Fc displayed on the E. coli inner membrane M428L
response [11, 12]: 430 MFI | response ([11]; pH 7.4, parent: est. 30): 70 MFI

Substance: wild-type Fc displayed on the E. coli inner membrane Q311R; M428L
response ([11]; pH 7.4, parent: est. 30): 80 MFI
